From patent publication US20170051281A1 (TRUSTEES OF COLUMBIA UNIVERSITY IN THE CITY OF NEW YORK, published 2017) come the findings set out here.

In the assay the target is T1, Centromere protein F (CENPF) (human, UniProt P49454 1-3111, limits assumed).
T1 construct: also called CENF; PRO 1779
Put plainly: co-immunoprecipitation.

T1 sequence (P49454 1-3111 limits assumed): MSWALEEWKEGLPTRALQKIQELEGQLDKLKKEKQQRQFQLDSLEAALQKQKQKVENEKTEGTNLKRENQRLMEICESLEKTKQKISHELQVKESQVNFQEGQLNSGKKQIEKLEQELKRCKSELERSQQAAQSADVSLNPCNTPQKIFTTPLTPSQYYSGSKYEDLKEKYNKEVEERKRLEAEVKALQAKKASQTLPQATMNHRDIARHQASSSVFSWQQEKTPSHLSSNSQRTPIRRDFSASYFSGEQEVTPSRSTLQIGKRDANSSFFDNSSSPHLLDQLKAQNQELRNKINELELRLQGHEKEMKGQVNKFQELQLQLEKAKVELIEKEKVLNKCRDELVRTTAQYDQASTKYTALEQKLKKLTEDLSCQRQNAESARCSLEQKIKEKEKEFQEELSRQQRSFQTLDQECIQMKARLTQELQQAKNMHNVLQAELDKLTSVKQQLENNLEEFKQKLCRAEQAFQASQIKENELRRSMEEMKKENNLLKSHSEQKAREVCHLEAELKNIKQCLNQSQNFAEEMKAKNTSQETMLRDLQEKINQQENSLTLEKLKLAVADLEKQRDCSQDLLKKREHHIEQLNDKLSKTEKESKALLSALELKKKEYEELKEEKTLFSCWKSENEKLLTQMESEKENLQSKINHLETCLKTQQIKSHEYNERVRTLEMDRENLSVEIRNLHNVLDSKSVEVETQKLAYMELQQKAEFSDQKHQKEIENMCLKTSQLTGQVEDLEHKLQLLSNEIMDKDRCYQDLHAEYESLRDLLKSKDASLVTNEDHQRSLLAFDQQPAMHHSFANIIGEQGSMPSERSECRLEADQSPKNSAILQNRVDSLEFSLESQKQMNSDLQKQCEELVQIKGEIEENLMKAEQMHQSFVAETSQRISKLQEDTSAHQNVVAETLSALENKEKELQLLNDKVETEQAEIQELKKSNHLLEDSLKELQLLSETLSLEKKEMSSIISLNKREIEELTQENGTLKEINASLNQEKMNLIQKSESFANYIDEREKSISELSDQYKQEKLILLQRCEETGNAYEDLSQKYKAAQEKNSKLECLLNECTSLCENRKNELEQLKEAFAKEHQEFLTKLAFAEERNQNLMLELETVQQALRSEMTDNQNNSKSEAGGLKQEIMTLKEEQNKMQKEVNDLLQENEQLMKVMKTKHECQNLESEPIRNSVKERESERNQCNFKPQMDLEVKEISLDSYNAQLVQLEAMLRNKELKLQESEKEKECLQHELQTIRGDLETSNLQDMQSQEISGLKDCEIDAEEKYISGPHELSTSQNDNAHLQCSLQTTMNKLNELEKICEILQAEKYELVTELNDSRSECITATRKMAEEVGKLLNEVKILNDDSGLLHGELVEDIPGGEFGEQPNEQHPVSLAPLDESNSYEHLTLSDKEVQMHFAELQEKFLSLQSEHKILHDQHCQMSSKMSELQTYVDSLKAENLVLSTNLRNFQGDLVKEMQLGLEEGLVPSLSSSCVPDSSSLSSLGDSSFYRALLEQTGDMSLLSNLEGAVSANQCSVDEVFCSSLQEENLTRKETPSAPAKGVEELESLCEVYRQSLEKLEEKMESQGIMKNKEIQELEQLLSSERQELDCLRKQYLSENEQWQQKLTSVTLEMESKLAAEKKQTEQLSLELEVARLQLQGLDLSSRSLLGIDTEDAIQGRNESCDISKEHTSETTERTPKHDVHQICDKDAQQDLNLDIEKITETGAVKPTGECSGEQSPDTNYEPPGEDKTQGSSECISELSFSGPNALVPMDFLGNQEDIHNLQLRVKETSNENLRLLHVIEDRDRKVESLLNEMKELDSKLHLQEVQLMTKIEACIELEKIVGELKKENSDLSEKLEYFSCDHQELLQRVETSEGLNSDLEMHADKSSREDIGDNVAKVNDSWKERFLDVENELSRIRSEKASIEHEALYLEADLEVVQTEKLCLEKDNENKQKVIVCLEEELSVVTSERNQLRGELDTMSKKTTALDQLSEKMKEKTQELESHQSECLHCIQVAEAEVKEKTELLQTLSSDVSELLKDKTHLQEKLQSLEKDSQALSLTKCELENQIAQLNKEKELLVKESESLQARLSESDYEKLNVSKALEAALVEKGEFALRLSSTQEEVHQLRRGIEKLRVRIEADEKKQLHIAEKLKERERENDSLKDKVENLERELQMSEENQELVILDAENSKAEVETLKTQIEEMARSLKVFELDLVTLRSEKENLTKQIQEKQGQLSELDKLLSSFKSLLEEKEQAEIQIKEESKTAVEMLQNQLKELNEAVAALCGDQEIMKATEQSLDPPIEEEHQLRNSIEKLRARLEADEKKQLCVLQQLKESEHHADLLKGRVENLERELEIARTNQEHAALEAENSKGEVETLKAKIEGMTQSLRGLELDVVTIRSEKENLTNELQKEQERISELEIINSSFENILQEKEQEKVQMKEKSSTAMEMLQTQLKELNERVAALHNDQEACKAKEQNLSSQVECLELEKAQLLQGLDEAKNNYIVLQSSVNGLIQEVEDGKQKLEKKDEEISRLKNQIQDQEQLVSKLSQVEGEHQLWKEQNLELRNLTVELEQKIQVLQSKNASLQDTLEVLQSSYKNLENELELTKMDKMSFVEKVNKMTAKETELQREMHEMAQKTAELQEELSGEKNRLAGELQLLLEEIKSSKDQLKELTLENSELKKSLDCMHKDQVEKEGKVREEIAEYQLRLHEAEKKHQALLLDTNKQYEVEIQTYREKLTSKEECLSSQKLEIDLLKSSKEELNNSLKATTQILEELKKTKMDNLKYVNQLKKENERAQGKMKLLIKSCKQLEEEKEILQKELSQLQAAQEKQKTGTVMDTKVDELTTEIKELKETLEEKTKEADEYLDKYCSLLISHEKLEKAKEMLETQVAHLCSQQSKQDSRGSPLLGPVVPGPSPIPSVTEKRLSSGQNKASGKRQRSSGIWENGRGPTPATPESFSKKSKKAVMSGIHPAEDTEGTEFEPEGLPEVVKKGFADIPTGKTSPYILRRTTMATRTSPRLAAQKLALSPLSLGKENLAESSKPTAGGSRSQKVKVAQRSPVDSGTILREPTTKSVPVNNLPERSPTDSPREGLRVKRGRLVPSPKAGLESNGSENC

B1: Forkhead box protein M1 (FOXM1) (other)
chain: MKTSPRRPLILKRRRLPLPVQNAPSETSEEEPKRSPAQQESNQAEASKEVAESNSCKFPAGIKIINHPTMPNTQVVAIPNNANIHSIITALTAKGKESGSSGPNKFILISCGGAPTQPPGLRPQTQTSYDAKRTEVTLETLGPKPAARDVNLPRPPGALCEQKRETCDGEAAGCTINNSLSNIQWLRKMSSDGLGSRSIKQEMEEKENCHLEQRQVKVEEPSRPSASWQNSVSERPPYSYMAMIQFAINSTERKRMTLKDIYTWIEDHFPYFKHIAKPGWKNSIRHNLSLHDMFVRETSANGKVSFWTIHPSANRYLTLDQVFKQQQKRPNPELRRNMTIKTELPLGARRKMKPLLPRVSSYLVPIQFPVNQSLVLQPSVKVPLPLAASLMSSELARHSKRVRIAPKVLLAEEGIAPLSSAGPGKEEKLLFGEGFSPLLPVQTIKEEEIQPGEEMPHLARPIKVESPPLEEWPSPAPSFKEESSHSWEDSSQSPTPRPKKSYSGLRSPTRCVSEMLVIQHRERRERSRSRRKQHLLPPCVDEPELLFSEGPSTSRWAAELPFPADSSDPASQLSYSQEVGGPFKTPIKETLPISSTPSKSVLPRTPESWRLTPPAKVGGLDFSPVQTSQGASDPLPDPLGLMDLSTTPLQSAPPLESPQRLLSSEPLDLISVPFGNSSPSDIDVPKPGSPEPQVSGLAANRSLTEGLVLDTMNDSLSKILLDISFPGLDEDPLGPDNINWSQFIPELQ
notes: also called FKHL16; FOXM1B
B1: the binding result is listed as “no binding”.
